Assays:
Galectin-3 [1] = target: T1, Galectin-3 (UniProt P17931 1-250, limits assumed); assay: BLI; after 25 C for 1 month
T1 construct: Target of the anti-Gal3 antibody TB006; also called Gal3; GAL3

Galectin-3 [2] = target: T1, Galectin-3; assay: BLI; after 40 C for 14 days
Galectin-3 [3] = target: T1, Galectin-3; assay: BLI; after -80 C for 6 months
Galectin-3 [4] = target: T1, Galectin-3; assay: BLI; after 3 freeze/thaws, 50% vol. of container
Galectin-3 [5] = target: T1, Galectin-3; assay: BLI; after 5 freeze/thaws, 75% vol. of container
Galectin-3 [6] = target: T1, Galectin-3; assay: BLI; after 5 freeze/thaws, 100% vol. of container
Galectin-3 [7] = target: T1, Galectin-3; assay: BLI (Binding Activity); long-term stability 5 C, 1 month
Galectin-3 [8] = target: T1, Galectin-3; assay: ELISA (Biological Activity); long-term stability 5 C, 3 months
Galectin-3 [9] = target: T1, Galectin-3; assay: BLI (Binding Activity); accelerated stability 25 C/60% RH, 1 month
Galectin-3 [10] = target: T1, Galectin-3; assay: ELISA (Biological Activity); accelerated stability 25 C/60% RH, 0 months
Galectin-3 [11] = target: T1, Galectin-3; assay: BLI (Binding Activity); long-term stability 5 C, 0 months; 5° C. long-term table, 0 months, Batch No. 095I0720
Galectin-3 (Gal3) [12] = target: T2, Galectin-3 (Gal3) (UniProt P17931 1-250, limits assumed); assay: BLI; 50 mg/mL DS, time 0 control
T2 construct: Target of TB006
T2 sequence (P17931 whole entry): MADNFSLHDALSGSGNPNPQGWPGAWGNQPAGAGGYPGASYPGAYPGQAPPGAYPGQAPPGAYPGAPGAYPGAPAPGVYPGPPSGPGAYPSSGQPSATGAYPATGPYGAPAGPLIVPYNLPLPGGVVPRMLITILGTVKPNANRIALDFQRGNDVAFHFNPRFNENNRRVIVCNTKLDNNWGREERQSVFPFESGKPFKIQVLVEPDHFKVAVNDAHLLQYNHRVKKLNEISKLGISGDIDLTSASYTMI

Galectin-3 (Gal3) [13] = target: T2, Galectin-3 (Gal3); assay: BLI; 20 mg/mL DS after 3 freeze/thaws
Summary of the method: (§1)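 Samples were taken at time zero or after stress: agitation (shear), repeated freeze-thaw cycles, or storage at set temperatures, including a 40° C stress test and cryogenic storage. Binding to Galectin-3 was measured by biolayer interferometry and reported as the dissociation constant (Kd).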

Galectin-3 (Gal3) [14] = target: T2, Galectin-3 (Gal3); assay: BLI; 20 mg/mL DS after 5 freeze/thaws
Summary of the method: as §1

Galectin-3 (Gal3) [15] = target: T2, Galectin-3 (Gal3); assay: BLI; 50 mg/mL DS after 40 C for 7 days
Galectin-3 (Gal3) [16] = target: T2, Galectin-3 (Gal3); assay: BLI; 20 mg/mL DS after 4 C for 6 months
Galectin-3 (Gal3) [17] = target: T2, Galectin-3 (Gal3); assay: BLI; 20 mg/mL DS after 4 C for 9 months
Summary of the method: as §1

Galectin-3 (Gal3) [18] = target: T2, Galectin-3 (Gal3); assay: BLI; 20 mg/mL DS after 40 C for 28 days
Galectin-3 (Gal3) [19] = target: T2, Galectin-3 (Gal3); assay: BLI; 50 mg/mL DS after 25 C for 14 days
Galectin-3 (Gal3) [20] = target: T2, Galectin-3 (Gal3); assay: BLI; 50 mg/mL DS after 40 C for 21 days
Galectin-3 (Gal3) [21] = target: T2, Galectin-3 (Gal3); assay: BLI; 50 mg/mL DS after 40 C for 28 days
Galectin-3 (Gal3) [22] = target: T2, Galectin-3 (Gal3); assay: BLI; 20 mg/mL DS after 25 C for 3 months
Summary of the method: as §1

Galectin-3 (Gal3) [23] = target: T2, Galectin-3 (Gal3); assay: BLI; 20 mg/mL DS after 4 C for 12 months
Summary of the method: as §1

Galectin-3 (Gal3) [24] = target: T2, Galectin-3 (Gal3); assay: BLI; 50 mg/mL DS after -80 C for 1 month
Galectin-3 (Gal3) [25] = target: T2, Galectin-3 (Gal3); assay: BLI; 50 mg/mL DS after 25 C for 6 months
Galectin-3 (Gal3) [26] = target: T2, Galectin-3 (Gal3); assay: BLI; 50 mg/mL DS after 4 C for 12 months
Galectin-3 (Gal3) [27] = target: T2, Galectin-3 (Gal3); assay: BLI; 50 mg/mL DS after -80 C for 3 months
Galectin-3 (Gal3) [28] = target: T2, Galectin-3 (Gal3); assay: BLI; 50 mg/mL DS after -80 C for 6 months
Galectin-3 (Gal3) [29] = target: T2, Galectin-3 (Gal3); assay: BLI; 20 mg/mL DS after -80 C for 12 months
Summary of the method: as §1

Galectin-3 (Gal3) [30] = target: T2, Galectin-3 (Gal3); assay: BLI; 50 mg/mL DS after -80 C for 12 months
Galectin-3 (Gal3) [31] = target: T2, Galectin-3 (Gal3); assay: BLI; 50 mg/mL DS after agitation for 1 day
Galectin-3 (Gal3) [32] = target: T2, Galectin-3 (Gal3); assay: BLI; 20 mg/mL DS after agitation for 3 days
Summary of the method: as §1

T1 sequence (P17931 whole entry): as above

B1: TB006 (antibody, human IgG4 S228P, kappa, V domains shown)
VH: QVQLVQSGAEVKKPGASVKVSCKASGYSFTNYYMHWVRQAPGQRLEWMGWIYPGSGNTNYNEKFQGRVTITADTSASTAYMELSSLRSEDTAVYYCSTAPGGFDVWGQGTTVTVSS
VL: DIVMTQTPLSLSVTPGQPASISCKSSKSLLHSDGITYLYWYLQKPGQSPQLLIYRMSNLASGVPDRFSGSGSGTDFTLKISRVEAEDVGVYYCAQMLEFPLTFGQGTKLEIKR
notes: Tested as formulated drug substance or drug product in 20 mM L-histidine, 5 mM methionine, 100 mM NaCl, 0.02% polysorbate 80, pH 5.8, or diluted in 0.9% saline; also called 4A11.H3L1; IMT006a
**Q.** Which results are given for B1?
**A.** Kd (Galectin-3 [1]): 3.1 nM; Kd (Galectin-3 [2]): 2.5 nM; Kd (Galectin-3 [3]): 2.8 nM; Kd (Galectin-3 [4]): 2.3 nM; Kd (Galectin-3 [5]): 2.9 nM; Kd (Galectin-3 [6]): 2.6 nM; Kd (Galectin-3 [7]): 2.5 nM; IC50 (Galectin-3 [8]): 1.5 µg/mL; Kd (Galectin-3 [9]): 2.5 nM; IC50 (Galectin-3 [10]): 2.5 µg/mL; Kd (Galectin-3 [11]): 3 nM

B2: TB006 (antibody, human IgG4 S228P, kappa, V domains shown)
VH: B1 VH
VL: B1 VL
notes: Full antibody tested as drug substance (DS) in 20 mM L-histidine, 5 mM methionine, 100 mM NaCl, 0.02% polysorbate-80, pH 5.8; also called 4A11.H3L1; IMT006a
**Q.** Which Kd (Galectin-3 (Gal3) [12]) does the source give for B2 here?
**A.** 2.6 nM

**Q.** What about the Kd (Galectin-3 (Gal3) [13]) of the same binder?
**A.** 3.3 nM

**Q.** And the Kd (Galectin-3 (Gal3) [14])?
**A.** 3.1 nM

**Q.** And the Kd (Galectin-3 (Gal3) [15])?
**A.** 2.7 nM

**Q.** What about the Kd (Galectin-3 (Gal3) [16]) of the same binder?
**A.** 3.3 nM

**Q.** What about the Kd (Galectin-3 (Gal3) [17]) of the same binder?
**A.** 1.9 nM

**Q.** What about the Kd (Galectin-3 (Gal3) [18]) of the same binder?
**A.** 3.8 nM

**Q.** And the Kd (Galectin-3 (Gal3) [19])?
**A.** 3.1 nM

**Q.** What about the Kd (Galectin-3 (Gal3) [20]) of the same binder?
**A.** 3 nM

**Q.** What about the Kd (Galectin-3 (Gal3) [21]) of the same binder?
**A.** 2.3 nM

**Q.** What about the Kd (Galectin-3 (Gal3) [22]) of the same binder?
**A.** 3.4 nM

**Q.** And the Kd (Galectin-3 (Gal3) [23])?
**A.** 2.7 nM

**Q.** And the Kd (Galectin-3 (Gal3) [24])?
**A.** 2.3 nM

**Q.** And the Kd (Galectin-3 (Gal3) [25])?
**A.** 2.4 nM

**Q.** And the Kd (Galectin-3 (Gal3) [26])?
**A.** 3.7 nM

**Q.** What about the Kd (Galectin-3 (Gal3) [27]) of the same binder?
**A.** 2.5 nM

**Q.** And the Kd (Galectin-3 (Gal3) [28])?
**A.** 1.8 nM

**Q.** And the Kd (Galectin-3 (Gal3) [29])?
**A.** 2.7 nM

**Q.** What about the Kd (Galectin-3 (Gal3) [30]) of the same binder?
**A.** 3.5 nM

**Q.** What about the Kd (Galectin-3 (Gal3) [31]) of the same binder?
**A.** 3.8 nM

**Q.** What about the Kd (Galectin-3 (Gal3) [32]) of the same binder?
**A.** 3.4 nM

Reference: patent publication US20240158512A1 (TRUEBINDING, published 2024)
